Patent US20160024496
Like-named read-outs stand apart in the source and are kept apart here.

Tests used:
[1] = tested on: T1, DPH2 (Homo sapiens), Q9BQC3-2; details: proteome array
T1 sequence: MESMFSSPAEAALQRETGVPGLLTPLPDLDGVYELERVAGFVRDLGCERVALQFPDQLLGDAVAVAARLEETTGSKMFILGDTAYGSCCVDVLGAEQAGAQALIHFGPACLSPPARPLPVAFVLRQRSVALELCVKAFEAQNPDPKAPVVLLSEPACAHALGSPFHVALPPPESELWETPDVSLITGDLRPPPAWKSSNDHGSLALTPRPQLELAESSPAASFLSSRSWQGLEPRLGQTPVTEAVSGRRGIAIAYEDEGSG

[2] = tested on: ZNF695 (Homo sapiens), Q8IW36-1; details: proteome array
Chain of ZNF695 (Homo sapiens), Q8IW36-1 (Q8IW36 other isoform, or with tags, fused parts or gaps): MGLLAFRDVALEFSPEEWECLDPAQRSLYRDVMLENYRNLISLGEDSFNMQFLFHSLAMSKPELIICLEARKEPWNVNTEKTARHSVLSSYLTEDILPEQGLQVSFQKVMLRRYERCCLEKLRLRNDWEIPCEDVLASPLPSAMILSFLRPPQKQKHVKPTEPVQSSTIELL

RANGAP1 (Homo sapiens) = biological target: T2, RANGAP1 (Homo sapiens) (UniProt P46060); details: proteome array, scrambled control
T2 sequence: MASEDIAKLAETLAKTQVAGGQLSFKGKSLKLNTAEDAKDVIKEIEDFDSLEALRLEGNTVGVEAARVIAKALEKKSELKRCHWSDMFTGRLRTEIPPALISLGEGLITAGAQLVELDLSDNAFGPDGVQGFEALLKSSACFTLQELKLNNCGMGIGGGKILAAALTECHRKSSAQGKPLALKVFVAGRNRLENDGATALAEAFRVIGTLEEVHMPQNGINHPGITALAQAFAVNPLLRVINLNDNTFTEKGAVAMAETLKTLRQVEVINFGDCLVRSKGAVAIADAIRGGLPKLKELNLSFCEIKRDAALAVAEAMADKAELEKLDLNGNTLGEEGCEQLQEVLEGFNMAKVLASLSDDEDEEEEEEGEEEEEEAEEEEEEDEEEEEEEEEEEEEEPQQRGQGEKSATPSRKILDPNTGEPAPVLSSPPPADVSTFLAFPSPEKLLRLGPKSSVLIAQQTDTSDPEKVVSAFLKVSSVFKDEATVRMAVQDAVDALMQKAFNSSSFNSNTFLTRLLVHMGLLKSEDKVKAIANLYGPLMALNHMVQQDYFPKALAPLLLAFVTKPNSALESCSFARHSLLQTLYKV

NDST1 (Homo sapiens) = biological target: T3, NDST1 (Homo sapiens) (UniProt P52848); details: proteome array, scrambled control
T3 sequence: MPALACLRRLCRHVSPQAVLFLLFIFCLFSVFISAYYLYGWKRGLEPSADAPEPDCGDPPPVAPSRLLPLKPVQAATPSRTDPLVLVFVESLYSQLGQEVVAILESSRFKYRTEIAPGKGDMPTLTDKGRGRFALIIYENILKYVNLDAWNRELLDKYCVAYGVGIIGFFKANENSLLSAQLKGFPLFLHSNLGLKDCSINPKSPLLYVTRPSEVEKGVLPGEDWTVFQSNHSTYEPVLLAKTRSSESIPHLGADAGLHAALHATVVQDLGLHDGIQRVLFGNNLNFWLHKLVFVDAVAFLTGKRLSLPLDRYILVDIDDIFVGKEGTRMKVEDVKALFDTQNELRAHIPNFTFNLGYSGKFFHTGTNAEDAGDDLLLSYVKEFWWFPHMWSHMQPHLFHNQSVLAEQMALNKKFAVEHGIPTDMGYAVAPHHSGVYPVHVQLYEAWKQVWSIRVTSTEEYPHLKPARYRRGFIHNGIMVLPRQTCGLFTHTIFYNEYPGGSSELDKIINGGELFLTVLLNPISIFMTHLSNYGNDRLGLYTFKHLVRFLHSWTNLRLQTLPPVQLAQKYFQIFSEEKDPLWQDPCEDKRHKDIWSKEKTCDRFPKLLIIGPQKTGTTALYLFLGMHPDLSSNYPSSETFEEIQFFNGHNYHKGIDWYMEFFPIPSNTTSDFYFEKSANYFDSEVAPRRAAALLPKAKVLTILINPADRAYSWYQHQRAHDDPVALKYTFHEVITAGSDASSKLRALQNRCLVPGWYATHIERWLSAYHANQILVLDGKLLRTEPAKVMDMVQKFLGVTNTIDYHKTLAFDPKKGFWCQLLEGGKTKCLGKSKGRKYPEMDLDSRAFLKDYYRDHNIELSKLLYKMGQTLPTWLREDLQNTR

ADARB2 (Homo sapiens) = biological target: T4, ADARB2 (Homo sapiens) (UniProt Q9NS39); details: proteome array, scrambled control
T4 sequence: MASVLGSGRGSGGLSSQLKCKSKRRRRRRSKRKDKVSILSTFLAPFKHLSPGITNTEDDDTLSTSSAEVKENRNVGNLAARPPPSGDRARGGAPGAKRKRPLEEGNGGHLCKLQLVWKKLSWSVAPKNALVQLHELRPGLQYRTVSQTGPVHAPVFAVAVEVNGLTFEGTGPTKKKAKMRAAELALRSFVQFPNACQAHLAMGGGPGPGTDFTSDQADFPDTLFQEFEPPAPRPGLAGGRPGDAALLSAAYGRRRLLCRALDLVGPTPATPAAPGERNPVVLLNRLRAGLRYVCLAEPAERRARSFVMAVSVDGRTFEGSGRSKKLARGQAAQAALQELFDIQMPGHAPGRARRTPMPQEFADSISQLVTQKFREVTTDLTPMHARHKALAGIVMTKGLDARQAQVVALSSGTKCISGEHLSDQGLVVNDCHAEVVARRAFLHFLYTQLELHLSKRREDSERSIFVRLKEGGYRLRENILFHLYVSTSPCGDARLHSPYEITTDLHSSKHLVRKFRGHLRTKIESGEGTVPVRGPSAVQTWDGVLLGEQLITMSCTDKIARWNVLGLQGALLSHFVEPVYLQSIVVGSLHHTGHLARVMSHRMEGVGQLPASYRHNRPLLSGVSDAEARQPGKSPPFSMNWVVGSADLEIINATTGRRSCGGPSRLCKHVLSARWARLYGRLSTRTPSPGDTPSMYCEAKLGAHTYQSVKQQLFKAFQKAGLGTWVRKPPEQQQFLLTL

MPP7 (Homo sapiens) = biological target: T5, MPP7 (Homo sapiens) (UniProt Q5T2T1); details: proteome array, scrambled control
T5 sequence: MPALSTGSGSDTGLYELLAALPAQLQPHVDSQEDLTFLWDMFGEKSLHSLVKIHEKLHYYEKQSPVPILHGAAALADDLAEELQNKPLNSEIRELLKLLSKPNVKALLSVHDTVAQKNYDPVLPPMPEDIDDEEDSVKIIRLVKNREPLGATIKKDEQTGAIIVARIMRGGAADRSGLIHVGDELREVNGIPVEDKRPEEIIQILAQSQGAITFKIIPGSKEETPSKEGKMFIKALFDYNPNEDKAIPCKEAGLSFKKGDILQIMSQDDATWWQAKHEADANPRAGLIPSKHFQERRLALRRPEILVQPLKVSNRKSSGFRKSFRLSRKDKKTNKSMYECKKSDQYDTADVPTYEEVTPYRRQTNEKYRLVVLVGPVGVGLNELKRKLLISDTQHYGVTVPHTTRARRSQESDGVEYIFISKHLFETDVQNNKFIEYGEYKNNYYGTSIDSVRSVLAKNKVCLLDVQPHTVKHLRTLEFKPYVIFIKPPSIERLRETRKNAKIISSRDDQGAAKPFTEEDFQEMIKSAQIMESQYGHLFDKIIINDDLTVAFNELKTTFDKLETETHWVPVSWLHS

CYP2C9 (Homo sapiens) = CYP2C9 (Homo sapiens) (UniProt P11712); details: proteome array, scrambled control
Chain of CYP2C9 (Homo sapiens) (P11712 whole entry): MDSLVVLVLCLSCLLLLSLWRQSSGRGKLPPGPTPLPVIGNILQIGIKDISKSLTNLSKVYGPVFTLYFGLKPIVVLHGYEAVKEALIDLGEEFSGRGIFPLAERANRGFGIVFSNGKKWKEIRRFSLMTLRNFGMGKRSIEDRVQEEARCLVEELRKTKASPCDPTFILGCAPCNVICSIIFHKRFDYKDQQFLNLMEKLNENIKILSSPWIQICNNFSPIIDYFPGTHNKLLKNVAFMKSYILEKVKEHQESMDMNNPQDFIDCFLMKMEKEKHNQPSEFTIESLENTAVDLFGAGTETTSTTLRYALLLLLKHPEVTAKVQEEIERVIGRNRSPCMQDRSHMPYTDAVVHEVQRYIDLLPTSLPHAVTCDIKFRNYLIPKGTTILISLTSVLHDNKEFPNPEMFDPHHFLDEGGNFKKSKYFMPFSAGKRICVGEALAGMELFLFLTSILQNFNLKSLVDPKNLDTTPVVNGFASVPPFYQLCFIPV

[3] = tested on: T6, DAZ2 (Homo sapiens), Q13117-3; details: proteome array, scrambled control
T6 sequence: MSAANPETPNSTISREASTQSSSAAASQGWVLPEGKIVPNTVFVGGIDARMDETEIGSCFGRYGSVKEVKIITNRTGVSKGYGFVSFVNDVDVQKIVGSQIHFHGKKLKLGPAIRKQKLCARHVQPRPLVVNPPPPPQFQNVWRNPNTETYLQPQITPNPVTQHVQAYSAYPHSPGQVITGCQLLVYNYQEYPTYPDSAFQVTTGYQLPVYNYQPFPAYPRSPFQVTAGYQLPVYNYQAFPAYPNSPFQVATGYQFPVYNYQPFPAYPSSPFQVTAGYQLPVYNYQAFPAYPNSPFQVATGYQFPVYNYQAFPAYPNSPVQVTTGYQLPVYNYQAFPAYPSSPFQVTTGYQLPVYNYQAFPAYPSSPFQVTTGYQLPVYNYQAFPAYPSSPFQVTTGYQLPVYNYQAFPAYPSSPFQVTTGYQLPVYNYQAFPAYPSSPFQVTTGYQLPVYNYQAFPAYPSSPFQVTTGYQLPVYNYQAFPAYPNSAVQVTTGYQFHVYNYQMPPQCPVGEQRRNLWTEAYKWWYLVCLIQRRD

ORAOV1 (Homo sapiens) = biological target: T7, ORAOV1 (Homo sapiens) (UniProt Q8WV07); details: proteome array, scrambled control
T7 sequence: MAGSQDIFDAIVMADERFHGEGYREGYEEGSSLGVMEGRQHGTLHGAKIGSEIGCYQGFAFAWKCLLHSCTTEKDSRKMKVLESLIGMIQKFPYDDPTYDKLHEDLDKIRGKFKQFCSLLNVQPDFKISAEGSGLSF

PGA5 (Homo sapiens) = PGA5 (Homo sapiens) (UniProt P0DJD9); details: proteome array, scrambled control
Chain of PGA5 (Homo sapiens) (P0DJD9 16-388): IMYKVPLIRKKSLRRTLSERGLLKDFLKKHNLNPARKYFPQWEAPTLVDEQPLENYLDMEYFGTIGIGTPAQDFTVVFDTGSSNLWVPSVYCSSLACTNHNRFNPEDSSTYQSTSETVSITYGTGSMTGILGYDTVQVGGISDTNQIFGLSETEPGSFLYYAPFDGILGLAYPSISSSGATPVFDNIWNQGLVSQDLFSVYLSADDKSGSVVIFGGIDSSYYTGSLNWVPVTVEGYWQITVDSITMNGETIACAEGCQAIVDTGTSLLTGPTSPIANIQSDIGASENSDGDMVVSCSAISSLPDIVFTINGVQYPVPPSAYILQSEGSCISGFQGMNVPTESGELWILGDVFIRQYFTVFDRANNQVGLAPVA

JARID2 (Homo sapiens) = JARID2 (Homo sapiens) (UniProt Q92833); details: proteome array, scrambled control
Chain of JARID2 (Homo sapiens) (Q92833 whole entry): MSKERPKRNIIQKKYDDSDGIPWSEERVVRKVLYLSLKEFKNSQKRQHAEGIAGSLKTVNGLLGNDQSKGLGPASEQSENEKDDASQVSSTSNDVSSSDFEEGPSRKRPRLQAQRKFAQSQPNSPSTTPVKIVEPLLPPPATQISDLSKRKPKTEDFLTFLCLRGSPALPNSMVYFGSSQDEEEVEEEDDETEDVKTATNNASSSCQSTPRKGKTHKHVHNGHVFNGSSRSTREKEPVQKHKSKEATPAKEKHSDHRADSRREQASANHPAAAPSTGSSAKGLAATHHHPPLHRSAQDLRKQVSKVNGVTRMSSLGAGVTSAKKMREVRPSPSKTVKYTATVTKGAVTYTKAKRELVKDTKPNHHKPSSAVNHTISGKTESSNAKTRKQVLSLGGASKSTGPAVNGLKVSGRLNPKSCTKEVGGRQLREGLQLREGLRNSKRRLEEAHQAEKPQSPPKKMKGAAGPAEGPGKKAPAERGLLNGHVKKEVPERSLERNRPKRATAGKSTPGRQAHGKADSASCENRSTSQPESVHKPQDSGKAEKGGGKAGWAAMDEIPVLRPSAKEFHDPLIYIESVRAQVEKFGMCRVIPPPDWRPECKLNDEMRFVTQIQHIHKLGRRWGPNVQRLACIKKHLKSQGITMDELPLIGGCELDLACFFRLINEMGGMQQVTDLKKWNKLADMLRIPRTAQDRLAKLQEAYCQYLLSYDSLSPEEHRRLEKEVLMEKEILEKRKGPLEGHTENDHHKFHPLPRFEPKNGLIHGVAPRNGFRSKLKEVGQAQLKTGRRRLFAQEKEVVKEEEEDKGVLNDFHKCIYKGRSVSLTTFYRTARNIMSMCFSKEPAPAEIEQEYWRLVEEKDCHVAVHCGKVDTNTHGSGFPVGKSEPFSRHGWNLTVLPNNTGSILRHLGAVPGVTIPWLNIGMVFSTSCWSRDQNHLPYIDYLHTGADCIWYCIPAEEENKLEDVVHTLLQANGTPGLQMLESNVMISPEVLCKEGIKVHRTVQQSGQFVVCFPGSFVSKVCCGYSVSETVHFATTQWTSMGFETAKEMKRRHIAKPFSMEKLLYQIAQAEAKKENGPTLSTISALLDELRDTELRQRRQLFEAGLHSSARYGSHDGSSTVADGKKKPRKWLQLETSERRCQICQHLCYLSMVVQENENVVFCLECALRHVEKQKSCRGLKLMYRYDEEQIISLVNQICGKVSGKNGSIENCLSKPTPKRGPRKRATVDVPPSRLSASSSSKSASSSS

HMGB2 (Homo sapiens) = biological target: T8, HMGB2 (Homo sapiens) (UniProt P26583); details: proteome array, scrambled control
T8 sequence: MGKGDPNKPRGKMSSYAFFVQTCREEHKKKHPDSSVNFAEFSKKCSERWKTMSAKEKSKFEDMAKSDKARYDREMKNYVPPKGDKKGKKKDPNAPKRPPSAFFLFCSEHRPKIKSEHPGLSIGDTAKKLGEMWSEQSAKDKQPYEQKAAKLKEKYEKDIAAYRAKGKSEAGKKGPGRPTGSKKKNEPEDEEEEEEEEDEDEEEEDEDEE

WBP11 (Homo sapiens) = WBP11 (Homo sapiens) (UniProt Q9Y2W2); details: proteome array, scrambled control
Chain of WBP11 (Homo sapiens) (Q9Y2W2 whole entry): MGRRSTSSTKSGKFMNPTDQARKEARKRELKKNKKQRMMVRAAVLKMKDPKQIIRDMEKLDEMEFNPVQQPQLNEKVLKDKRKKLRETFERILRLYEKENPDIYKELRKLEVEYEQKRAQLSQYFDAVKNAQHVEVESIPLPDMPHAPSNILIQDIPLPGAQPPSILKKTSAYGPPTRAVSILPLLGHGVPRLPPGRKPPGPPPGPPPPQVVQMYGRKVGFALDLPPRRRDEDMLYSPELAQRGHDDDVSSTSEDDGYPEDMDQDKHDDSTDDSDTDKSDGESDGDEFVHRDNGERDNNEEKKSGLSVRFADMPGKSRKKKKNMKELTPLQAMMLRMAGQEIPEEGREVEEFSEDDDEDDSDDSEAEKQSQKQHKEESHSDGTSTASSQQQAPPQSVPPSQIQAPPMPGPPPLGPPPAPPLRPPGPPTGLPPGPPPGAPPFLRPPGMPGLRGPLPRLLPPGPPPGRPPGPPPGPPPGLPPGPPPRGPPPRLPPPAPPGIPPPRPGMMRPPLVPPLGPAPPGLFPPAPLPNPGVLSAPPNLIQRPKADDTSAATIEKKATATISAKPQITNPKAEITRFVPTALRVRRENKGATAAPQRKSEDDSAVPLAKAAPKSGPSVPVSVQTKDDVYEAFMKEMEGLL

PTER (Homo sapiens) = biological target: T9, PTER (Homo sapiens) (UniProt Q96BW5); details: proteome array, scrambled control
T9 sequence: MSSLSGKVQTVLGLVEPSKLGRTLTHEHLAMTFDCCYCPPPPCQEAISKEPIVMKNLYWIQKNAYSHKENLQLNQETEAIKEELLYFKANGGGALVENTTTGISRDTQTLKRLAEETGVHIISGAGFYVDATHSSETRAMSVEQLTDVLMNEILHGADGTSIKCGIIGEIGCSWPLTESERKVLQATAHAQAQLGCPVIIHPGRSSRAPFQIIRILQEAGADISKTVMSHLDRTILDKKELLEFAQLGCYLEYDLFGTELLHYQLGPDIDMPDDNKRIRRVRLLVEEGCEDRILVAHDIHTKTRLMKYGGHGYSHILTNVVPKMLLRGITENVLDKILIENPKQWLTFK

TCL1B (Homo sapiens) = biological target: T10, TCL1B (Homo sapiens) (UniProt O95988); details: proteome array, scrambled control
T10 sequence: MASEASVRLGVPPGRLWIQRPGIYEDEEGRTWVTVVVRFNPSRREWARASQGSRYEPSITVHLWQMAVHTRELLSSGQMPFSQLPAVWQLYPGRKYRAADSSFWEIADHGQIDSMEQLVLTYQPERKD

[4] = tested on: SOX6 (Homo sapiens), P35712-4; details: proteome array, scrambled control
Chain of SOX6 (Homo sapiens), P35712-4 (P35712 other isoform, or with tags, fused parts or gaps): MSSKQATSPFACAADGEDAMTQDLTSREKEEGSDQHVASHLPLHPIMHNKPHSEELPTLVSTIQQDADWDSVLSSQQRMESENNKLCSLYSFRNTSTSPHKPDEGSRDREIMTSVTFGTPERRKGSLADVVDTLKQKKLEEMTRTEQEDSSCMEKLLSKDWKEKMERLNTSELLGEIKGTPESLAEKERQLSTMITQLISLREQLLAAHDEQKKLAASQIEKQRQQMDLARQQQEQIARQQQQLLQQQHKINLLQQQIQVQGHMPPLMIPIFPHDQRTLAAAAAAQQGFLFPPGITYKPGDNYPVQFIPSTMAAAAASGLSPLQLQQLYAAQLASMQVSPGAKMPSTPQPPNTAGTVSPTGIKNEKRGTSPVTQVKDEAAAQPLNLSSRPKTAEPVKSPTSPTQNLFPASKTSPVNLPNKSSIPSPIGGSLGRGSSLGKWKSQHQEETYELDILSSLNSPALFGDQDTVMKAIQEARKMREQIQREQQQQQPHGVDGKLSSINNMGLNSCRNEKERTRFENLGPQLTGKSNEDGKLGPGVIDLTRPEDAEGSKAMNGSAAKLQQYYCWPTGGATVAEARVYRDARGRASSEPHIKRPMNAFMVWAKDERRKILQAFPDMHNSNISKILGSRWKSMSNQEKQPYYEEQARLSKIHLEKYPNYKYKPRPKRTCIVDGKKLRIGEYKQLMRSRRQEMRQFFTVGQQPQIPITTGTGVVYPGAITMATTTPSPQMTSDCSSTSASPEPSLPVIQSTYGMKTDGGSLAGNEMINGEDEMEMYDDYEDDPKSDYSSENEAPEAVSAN

[5] = tested on: MITF (Homo sapiens), O75030-2; details: proteome array, scrambled control
Chain of MITF (Homo sapiens), O75030-2 (O75030 other isoform, or with tags, fused parts or gaps): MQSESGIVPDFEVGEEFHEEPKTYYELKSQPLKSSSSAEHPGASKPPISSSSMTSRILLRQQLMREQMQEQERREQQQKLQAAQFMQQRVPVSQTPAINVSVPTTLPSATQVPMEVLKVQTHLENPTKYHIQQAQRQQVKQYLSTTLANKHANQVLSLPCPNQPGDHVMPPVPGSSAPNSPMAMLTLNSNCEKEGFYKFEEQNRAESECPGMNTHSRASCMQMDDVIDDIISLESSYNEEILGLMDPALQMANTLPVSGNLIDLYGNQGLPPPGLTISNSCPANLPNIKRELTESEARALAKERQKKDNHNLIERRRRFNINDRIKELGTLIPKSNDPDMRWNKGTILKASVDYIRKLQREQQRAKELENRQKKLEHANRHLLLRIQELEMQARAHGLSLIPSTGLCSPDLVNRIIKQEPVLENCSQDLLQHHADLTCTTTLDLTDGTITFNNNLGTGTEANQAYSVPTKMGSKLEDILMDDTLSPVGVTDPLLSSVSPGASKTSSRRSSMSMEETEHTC

TRIM32 (Homo sapiens) = TRIM32 (Homo sapiens) (UniProt Q13049); details: proteome array, scrambled control
Chain of TRIM32 (Homo sapiens) (Q13049 whole entry): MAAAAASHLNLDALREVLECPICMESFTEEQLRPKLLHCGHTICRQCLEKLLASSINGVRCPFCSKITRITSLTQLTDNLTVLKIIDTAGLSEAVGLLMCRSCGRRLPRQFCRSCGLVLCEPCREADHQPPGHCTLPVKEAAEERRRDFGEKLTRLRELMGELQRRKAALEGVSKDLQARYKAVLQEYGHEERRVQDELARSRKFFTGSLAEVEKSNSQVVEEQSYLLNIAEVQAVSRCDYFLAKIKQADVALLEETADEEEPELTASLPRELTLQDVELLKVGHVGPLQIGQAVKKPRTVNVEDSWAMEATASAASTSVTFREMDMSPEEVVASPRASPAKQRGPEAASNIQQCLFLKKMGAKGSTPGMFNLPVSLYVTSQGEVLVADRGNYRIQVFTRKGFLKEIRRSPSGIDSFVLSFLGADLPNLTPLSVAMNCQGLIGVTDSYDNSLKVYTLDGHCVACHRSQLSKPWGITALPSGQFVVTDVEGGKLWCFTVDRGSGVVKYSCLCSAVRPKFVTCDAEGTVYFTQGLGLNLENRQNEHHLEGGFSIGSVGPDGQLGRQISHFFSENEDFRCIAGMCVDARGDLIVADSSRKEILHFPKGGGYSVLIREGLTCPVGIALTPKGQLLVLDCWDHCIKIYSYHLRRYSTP

NUDT6 (Homo sapiens) = biological target: T11, NUDT6 (Homo sapiens) (UniProt P53370); details: proteome array, scrambled control
T11 sequence: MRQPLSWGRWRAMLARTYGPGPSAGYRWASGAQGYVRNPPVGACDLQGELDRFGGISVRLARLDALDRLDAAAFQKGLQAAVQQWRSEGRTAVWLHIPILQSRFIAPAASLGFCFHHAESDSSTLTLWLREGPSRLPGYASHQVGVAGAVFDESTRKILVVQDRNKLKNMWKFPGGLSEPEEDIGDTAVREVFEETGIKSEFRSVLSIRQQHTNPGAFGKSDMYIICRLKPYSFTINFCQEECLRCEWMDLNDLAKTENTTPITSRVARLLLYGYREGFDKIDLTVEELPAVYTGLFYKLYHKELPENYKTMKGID

In the case of “GGGGCCGGGGCCGGGGCCGGGGCCGGGGCCGGGGCCGGG [GGGGCCx6.5 RNA]”, the binding signal ([1]; [none], delta Z 10.61) is reported as 14 Z-score and the binding signal ([2]; [none], delta Z 2.58) is reported as 4.76 Z-score.

GC-scrambled RNA gave a binding signal ([1]; scrambled control) of 3.43 Z-score, a binding signal (RANGAP1 (Homo sapiens)) of 1.21 Z-score and a binding signal (NDST1 (Homo sapiens)) of 8.06 Z-score. The binding signal (ADARB2 (Homo sapiens)) was -0.2 Z-score, the binding signal (MPP7 (Homo sapiens)) was 0.3 Z-score and the binding signal (CYP2C9 (Homo sapiens)) was 1.49 Z-score. The binding signal [3] was 7.8 Z-score, the binding signal (ORAOV1 (Homo sapiens)) was 0.41 Z-score and the binding signal (PGA5 (Homo sapiens)) was 2.96 Z-score. The binding signal ([2]; scrambled control) was 2.18 Z-score, the binding signal (JARID2 (Homo sapiens)) was 0.64 Z-score and the binding signal (HMGB2 (Homo sapiens)) was 1.23 Z-score. The binding signal (WBP11 (Homo sapiens)) was -0.17 Z-score, the binding signal (PTER (Homo sapiens)) was 4.09 Z-score and the binding signal (TCL1B (Homo sapiens)) was 5.42 Z-score. It also gave a binding signal [4] of 1.16 Z-score, a binding signal [5] of 6.71 Z-score and a binding signal (TRIM32 (Homo sapiens)) of 4.63 Z-score. It also gave a binding signal (NUDT6 (Homo sapiens)) of 8.38 Z-score.
